The values below come from patent US20250215071A1, “Novel Mcl-1 inhibitor and combination of Mcl-1 and a BH3 mimetic, such as a Bcl-2 inhibitor” (NETRIS PHARMA, priority 2022, published 2025).

The test system of this test is human Mcl-1. Kind of test: In vivo Mcl-1 degradation in EMT6 syngeneic breast cancer model (western blot). Particulars: EMT6 cells over-expressing human Mcl-1 in BALB/c mice; 20 mg/Kg i.v.; 8 hours after treatment; vs control mice (Iso-mAb). The method, then:
FIG. 7. Netrin-1 interference triggers Mcl-1 degradation in vitro and in vivo. (A,B): Netrin-1 silencing triggers Mcl-1 degradation. Breast cancer MCF7 cells were transfected with scramble (siCTRL) or netrin-1 (siNet) targeting siRNAs. 48 hours after transfection, cells were lysed by scraping and sonication in SDS-containing buffer. Protein levels of Mcl-1, netrin-1, and UNC5B, as well as B-actin and Ku80, used as housekeeping genes, were evaluated by western blot (A). Relative Mcl-1 protein levels, normalized to β-actin or Ku80, are shown in (B) (n=2, *** p<0.001, **** p<0.0001, ordinary two-way ANOVA with Sidak's multiple comparisons test). […] Protein levels of Mcl-1 were then evaluated by western blot (C). […] Mcl-1 protein was quantified in paraffin-embedded slices on paired C1D1 and C3D1 biopsies and compared with clinical benefit (stable disease, SD, or progression disease, PD, at 6 weeks). Mcl-1 intensity was assessed in all, PD or SD biopsies (E) (n=6, Wilcoxon test). […]
For immunoblotting analysis, cells were lysed by sonication in SDS buffer (10 mM Tris-HCl pH 7.4, 10% glycerol, 5% SDS, 1% TX-100, 100 mM DTT) in the presence of protease inhibitor cocktail (Roche Applied Science). […] Protein band quantification was performed with Image Lab 6.1 software (Bio-rad), considering the adjusted volume intensity normalized with housekeeping genes. […]

B1: NP137: humanized anti-netrin-1 monoclonal antibody, VH SEQ ID NO: 22, VL SEQ ID NO: 16, human IgG1 (antibody, V domains shown)
VH: QVQLQQSGPGLVKPSQTLSLTCAISGYTFTSYNMHWVRQATGQGLEWMGAIYPGNGDTSYNQKFKGRLTISKDTSKNQVVLTMTNMDPVDTATYYCARGGTGFAYWGQG
VL: DIQMTQSPSSLSASVGDRVTITCKASQSVSNDVAWYQQKPGQAPRLLIYYASNRYTGIPPRFSGSGYGTDFTLTINNIESEDAAYYFCQQDYSSPWTFGQG
modifications: human IgG1 constant region; humanized variant; MISC_FEATURE - CDR according to IGMT
On to B1, for which the “Mcl-1 protein levels in tumors” value is “significantly reduced Mcl-1 protein levels”.
